Assay results reported in patent publication US20210324089A1 (ACCELERON PHARMA, published 2021).

Molecular target: T1, human ALK7-Fc comprising protein (human, UniProt Q8NER5 22-113, limits assumed)
T1 construct: The wording 'ALK7-Fc comprising protein' leaves open whether further chains are present; also called human ALK7-Fe comprising protein; not shown: Fc portion
T1 sequence: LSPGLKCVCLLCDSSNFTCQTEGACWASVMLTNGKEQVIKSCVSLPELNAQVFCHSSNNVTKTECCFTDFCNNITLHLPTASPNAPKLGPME
Assay: SPR (Biacore T100/T200); antibody captured on FAB chip, ALK7-Fc comprising protein as analyte; 1:1 fit
Procedure: Experiments were performed using a Biacore T100/T200 biosensor (Biacore/GE Healthcare) at 25 and 37° C. ALK7 antibodies were captured on custom made FAB chip. A concentration series of ALK7-Fc comprising protein was injected over the flow cells at a flow rate of […]. To obtain kinetic rate constants the corrected data were fit to a 1:1 interaction model using BiaEvaluation software (GE Healthcare). The equilibrium binding constant KD was determined by the ratio of binding rate constants kd/ka.

B1: L01 (antibody, V domains shown)
VH: QVQLVQSGAEVKKPGSSVKVSCKASGGTFSSYAISWVRQAPGQGLEWMGSIIPIFGTANYAQKFQGRVTITADESTSTAYMELSSLRSEDTAVYYCARDPVGARYEVFDYWGQGTLVTVSS
VL: EIVMTQSPATLSVSPGERATLSCRASQSVSSNLAWYQQKPGQAPRLLIYSASTRATGIPARFSGSGSGTEFTLTISSLQSEDFAVYYCQQANTFPLTFGGGTKVEIK
notes: Human IgG from yeast libraries; also called LOL
koff: 0.000367 s⁻¹
